This test deals with soluble FixL (FixL_(118–495), missing the transmembrane domain) (Caulobacter crescentus).

“Caulobacter crescentus FixT (natural protein)”: the accumulation of autophosphorylated FixL ([γ-32P]ATP, 30-minute time course; FixL 5 μM, FixJ(D55A) 20 μM, FixT 80 μM) worked out at 3 fold.

The values above are taken from article PMC7078487.
